The Human Domainome abundance scans (Beltran et al. 2025)

B1: Storkhead-box protein 2, residues 64 to 141; numbered along this chain, Q9P2F5 (parent)
chain: SPISQSQFIPLGEILCLAISAMNSARKPVTQEALMEHLTTCFPGVPTPSQEILRHTLNTLVRERKIYPTPDGYFIVTP

Variants of: B1
Assay: abundance fitness (aPCA) (normalised: wild type 0, dead -1); higher = more abundant; growth selection in yeast, the domain comes from the species named
Details: Homo sapiens

Abundance fitness: each site, then its substitutions
Q5: C -0.025
F8: Y -0.326, L -0.135, I -0.017, W -0.016, A -0.055, G -0.103, N -0.021, E -0.012, H 0.015, M -0.102, D -0.027, S 0.017, K -0.137, T -0.08, Q -0.196, R -0.059, V -0.063, P -0.081, C -0.104
S4: V -0.056, K -0.154, Y -0.076, P 0.007, N -0.038, D 0.104, L -0.026, C -0.013, H 0.008, R -0.155, T -0.006, F -0.151, M 0.002, A -0.098, I -0.079, W -0.161, G -0.17
I3: G -0.046, S 0.004, C -0.16, R -0.022, Y -0.158, A -0.075, P -0.106, H -0.017, V 0.001, T -0.024, E 0.041, N -0.207, W -0.44, Q -0.12, F -0.255, M -0.047
S6: K -0.126, V -0.171, P -0.07, R -0.062, Y -0.206, F -0.091, Q -0.069, W -0.246, H -0.334, T -0.079, I -0.148, G -0.041, E -0.046, M -0.123, N -0.033, D 0.027
G12: D -0.127, C -0.135, A -0.3, V -0.452
E13: C -0.152, N 0.02, F -0.349, M -0.206, Q 0.021, D -0.001, V -0.241, R 0.078, W -0.331, H -0.061, G -0.009, T -0.016, P -0.059, K -0.039, L -0.34, S -0.039
I14: F -0.228, G -0.097, L -0.035, A -0.003, H 0.033, E -0.089, K -0.039, D -0.258, C -0.109
P2: K -0.137, I -0.037, N 0.188, Q 0.103, A -0.084, G -0.095, M 0.013, Y 0.107, R 0.019, L 0.046, H 0.051, E -0.18, W -0.102, S 0.002, D 0.124, V 0.001, C -0.15
I9: W -0.011, G 0.025, V 0.011, R 0.03, M 0.062, L 0.03, T 0.007, Q 0.101, N 0.131, H -0.243, K 0.044, P 0.046, A 0.005, E 0.074, Y -0.082, C 0.067, D -0.035
P10: D -0.135, K 0.016, W 0.175, C -0.136, E -0.043, I 0.302, T -0.024, A -0.027, N 0.108, Y 0.003, R 0.089, V 0.171, F -0.04, S -0.067, L 0.085, H -0.101, M 0.048
L11: P -0.299, G -0.277, F 0.054, E -0.325, S -0.396, W -0.418, N -0.466, D -0.316, C -0.62, K -0.51, H -0.051, Y -0.008, A -0.258, I -0.096, R -0.428, V -0.163, Q -0.32, T -0.278
